Experimental data published in patent publication US11994512B2, “Single-cell genomic methods to generate ex vivo cell systems that recapitulate in vivo biology with improved fidelity” (Massachusetts Institute of Technology, priority 2018, dated 2024).

B1: P30681 (protein, UniProt P30681 1-210, looked up)
chain: MGKGDPNKPRGKMSSYAFFVQTCREEHKKKHPDSSVNFAEFSKKCSERWKTMSAKEKSKFEDLAKSDKARYDREMKNYVPPKGDKKGKKKDPNAPKRPPSAFFLFCSENRPKIKIEHPGLSIGDTAKKLGEMWSEQSAKDKQPYEQKAAKLKEKYEKDIAAYRAKGKSEAGKKGPGRPTGSKKKNEPEDEEEEEEEEEEEDDEEEEEDEE
modifications: full-length
B2: P19246 (protein, UniProt P19246 1-1090, looked up)
chain: MMSFGSADALLGAPFAPLHGGGSLHYSLSRKAGPGGTRSAAGSSSGFHSWARTSVSSVSASPSRFRGAASSTDSLDTLSNGPEGCVVAAVAARSEKEQLQALNDRFAGYIDKVRQLEAHNRSLEGEAAALRQQQAGRAAMGELYEREVREMRGAVLRLGAARGQLRLEQEHLLEDIAHVRQRLDEEARQREEAEAAARALARFAQEAEAARVELQKKAQALQEECGYLRRHHQEEVGELLGQIQGCGAAQAQAQAEARDALKCDVTSALREIRAQLEGHAVQSTLQSEEWFRVRLDRLSEAAKVNTDAMRSAQEEITEYRRQLQARTTELEALKSTKESLERQRSELEDRHQADIASYQDAIQQLDSELRNTKWEMAAQLREYQDLLNVKMALDIEIAAYRKLLEGEECRIGFGPSPFSLTEGLPKIPSISTHIKVKSEEMIKVVEKSEKETVIVEGQTEEIRVTEGVTEEEDKEAQGQEGEEAEEGEEKEEEEGAAATSPPAEEAASPEKETKSRVKEEAKSPGEAKSPGEAKSPAEAKSPGEAKSPGEAKSPGEAKSPAEPKSPAEPKSPAEAKSPAEPKSPATVKSPGEAKSPSEAKSPAEAKSPAEAKSPAEAKSPAEAKSPAEAKSPAEAKSPATVKSPGEAKSPSEAKSPAEAKSPAEAKSPAEAKSPAEVKSPGEAKSPAEPKSPAEAKSPAEVKSPAEAKSPAEVKSPGEAKSPAAVKSPAEAKSPAAVKSPGEAKSPGEAKSPAEAKSPAEAKSPIEVKSPEKAKTPVKEGAKSPAEAKSPEKAKSPVKEDIKPPAEAKSPEKAKSPVKEGAKPPEKAKPLDVKSPEAQTPVQEEAKHPTDIRPPEQVKSPAKEKAKSPEKEEAKTSEKVAPKKEEVKSPVKEEVKAKEPPKKVEEEKTLPTPKTEAKESKKDEAPKEAPKPKVEEKKETPTEKPKDSTAEAKKEEAGEKKKAVASEEETPAKLGVKEEAKPKEKTETTKTEAEDTKAKEPSKPTETEKPKKEEMPAAPEKKDTKEEKTTESRKPEEKPKMEAKVKEDDKSLSKEPSKPKTEKAEKSSSTDQKESQPPEKTTEDKATKGEK
modifications: full-length
B3: P31362 (protein, UniProt P31362 1-431, looked up)
chain: MVNLEPMHTEIKMSGDVADSTDTRSTFGQVEPGNDRNGLDFNRQIKTEDLGDSLQQTLSHRPCHLSQGPTMMPGNQMSGDMASLHPLQQLVLVPGHLQSVSQFLLSQTPPGQQGLQPNLLSFPQQQSTLLLPQTGPGLASQAVGRPGLSGSSLEPHLDAPQHLPGPKHLPGPGGNDEPTDLEELEKFAKTFKQRRIKLGFTQGDVGLAMGKLYGNDFSQTTISRFEALNLSFKNMCKLKPLLEKWLNDAESSPSDPSASTPSSYPTLSEVFGRKRKKRTSIETNIRLTLEKRFQDNPKPSSEEISMIAEQLSMEKEVVRVWFCNRRQKEKRINCPVATPVKPPIYNSRLVSPSGSLGPLSVPPVHSTMPGTVTSSCSPGNNSRPSSPGSGLHASSPTASQNNSKAAMNSSSSSSFNSSGSWYRWNHPTYLH
modifications: full-length
B4: P27600 (protein, UniProt P27600 1-379, looked up)
chain: MSGVVRTLSRCLLPAEAGARERRAGAARDAEREARRRSRDIDALLARERRAVRRLVKILLLGAGESGKSTFLKQMRIIHGREFDQKALLEFRDTIFDNILKGSRVLVDARDKLGIPWQHSENEKHGMFLMAFENKAGLPVEPATFQLYVPALSALWRDSGIREAFSRRSEFQLGESVKYFLDNLDRIGQLNYFPSKQDILLARKATKGIVEHDFVIKKIPFKMVDVGGQRSQRQKWFQCFDGITSILFMVSSSEYDQVLMEDRRTNRLVESMNIFETIVNNKLFFNVSIILFLNKMDLLVEKVKSVSIKKHFPDFKGDPHRLEDVQRYLVQCFDRKRRNRSKPLFHHFTTAIDTENIRFVFHAVKDTILQENLKDIMLQ
modifications: full-length
B5: P40338 (protein, UniProt P40338 1-181, looked up)
chain: MPRKAASPEEAAGEPGPEEMEAGRPRPVLRSVNSREPSQVIFCNRSPRVVLPLWLNFDGEPQPYPILPPGTGRRIHSYRGHLWLFRDAGTHDGLLVNQTELFVPSLNVDGQPIFANITLPVYTLKERCLQVVRSLVKPENYRRLDIVRSLYEDLEDYPSVRKDIQRLSQEHLESQHLEEEP
modifications: full-length
B6: P23881 (protein, UniProt P23881 1-347, looked up)
chain: MGLEEELLRIAKKLEKMVSRKKTEGALDLLKKLNSCQMSIQLLQTTRIGVAVNGVRKHCSDKEVVSLAKVLIKNWKRLLDSPRTTKGEREEREKAKKEKGLGCSDWKPEAGLSPPRKKGGGEPKTRRDSVDSRSSTTSSPKRPSLERSNSSKSKVETPTTPSSPSTPTFAPAVCLLAPCYLTGDSVRDKCVEMLSAALKAEDNFKDYGVNCDKLASEIEDHIYQELKSTDMKYRNRVRSRISNLKDPRNPGLRRNVLSGAISPELIAKMTAEEMASDELRELRNAMTQEAIREHQMAKTGGTTTDLLRCSKCKKKNCTYNQVQTRSADEPMTTFVLCNECGNRWKFC
modifications: full-length
B7: P19467 (protein, UniProt P19467 1-573, looked up)
chain: MKGFLLLSLSLLLVTVGSSSQASSTTSSSGGTSPPTTVQSQSPGSSSQASTTTSSSGGASPPTTVQSQSPGSSSQASTTTSSSGGASPPTTVQSQSPGSSSQASTTTSSSGGASPPTTVQSQSPGSSSQASTTTSSSGGASPPTTVQSQSPGSSSQASTTTSSSGGASPPTTVQSQSPGSSSQVSTTTSSSGGASPPTTVQSQSPGSSSQPGPTQPSGGASSSTVPSGGSTGPSDLCNPNPCKGTASCVKLHSKHFCLCLEGYYYNSSLSSCVKGTTFPGDISMSVSETANLEDENSVGYQELYNSVTDFFETTFNKTDYGQTVIIKVSTAPSRSARSAMRDATKDVSVSVVNIFGADTKETEKSVSSAIETAIKTSGNVKDYVSINLCDHYGCVGNDSSKCQDILQCTCKPGLDRLNPQVPFCVAVTCSQPCNAEEKEQCLKMDNGVMDCVCMPGYQRANGNRKCEECPFGYSGMNCKDQFQLILTIVGTIAGALILILLIAFIVSARSKNKKKDGEEQRLIEDDFHNLRLRQTGFSNLGADNSIFPKVRTGVPSQTPNPYANQRSMPRPDY
modifications: full-length

Tested on: intracellular proteome of ENR+CD and ENR organoids
Assay: LC-MS/MS TMT proteomics of ENR+CD versus ENR organoids
Format: cell-based, C57BL/6 mice
Conditions: for Average logFC / M1-1 Log2 Median Normalized / M1-2 Log2 Median Normalized / M2-1 Log2 Median Normalized / M2-2 Log2 Median Normalized: protein abundance, ENR+CD versus ENR organoids; for Average logFC: aggregate of the four sample pairs; for M1-1 Log2 Median Normalized: replicate M1-1; for M1-1 Log2 Median Normalized / M1-2 Log2 Median Normalized / M2-1 Log2 Median Normalized / M2-2 Log2 Median Normalized: log2 ratio; for M1-2 Log2 Median Normalized: replicate M1-2; for M2-1 Log2 Median Normalized: replicate M2-1; for M2-2 Log2 Median Normalized: replicate M2-2; for change: up = enriched in ENR+CD, down = enriched in ENR, FDR<0.05 and log fold change cut-off

Row | Molecule | Average logFC | M1-1 Log2 Median Normalized | M1-2 Log2 Median Normalized | M2-1 Log2 Median Normalized | M2-2 Log2 Median Normalized | change
1 | B1 | −1.315 | −1.316 | −1.094 | −1.2715 | −1.62 | down
2 | B2 | 1.284 | 1.432 | 1.357 | 1.1695 | 1.176 | up
3 | B3 | −1.897 | −1.567 | −1.082 | −2.3845 | −2.554 | down
4 | B4 | −2.195 | −1.957 | −1.145 | −2.8495 | −2.827 | down
5 | B5 | −1.533 | −1.026 | −1.492 | −1.5695 | −2.043 | down
6 | B6 | −1.33 | −1.331 | −1.172 | −1.7775 | −1.12 | down
7 | B7 | 1.199 | 1.437 | 0.978 | 1.3955 | 0.984 | up
